Molecular target: T1, ILT4-Fc (recombinant ILT4 receptor fused to the Fc part of a human IgG, R&D Biosystems) (human, UniProt Q8N423 22-458)
T1 construct: Bought reagent (R&D); also called ILT4/LILRB2/CD85d; not shown: Fc part of a human IgG
Experiment: dimer covalently coated on Bio-Plex beads, ILT4-Fc at 2 µg/ml, PE anti-human IgG, flow cytometry
Method: To test the binding to HLA-G receptors ILT2, ILT4, and KIR2DL4, 12 μg of dimers obtained according to example 2 were covalently coated on Bio-Plex-COOH polystyrene beads (Bio-Rad) according to the manufacturer's recommendations. Beads were then resuspended at a concentration of 2000 beads per 50 μl in 1× Luminex assay buffer (Interchim). Recombinant receptors fused to the Fc part of a human IgG (ILT2-Fc, ILT4-Fc, R&D Biosystems) were then added at 2 μg/ml. Beads and receptors were then incubated for 90 minutes in the dark on a shaker before wash twice with 200 μl of 1×PBS, 0.05% Tween. Beads were then resuspended in 50 μl of PBS Luminex assay Buffer containing 2 μl g/ml of Phycoerythrin-conjugated Goat anti Human IgG antibody (Sigma) for 30 minutes in the dark on a rotating shaker. Beads were then washed twice with 200 μl of 1×PBS, 0.05% Tween, and resuspended in 300 μl of 1×PBS.
Fluorescence, indicative of peptide recognition by the receptors was evaluated by flow cytometry performed on an Epics XL Cytometer (Beckman Coulter) using EXPO32 software (Beckman Coulter).

T1 sequence (Q8N423 22-458 limits assumed): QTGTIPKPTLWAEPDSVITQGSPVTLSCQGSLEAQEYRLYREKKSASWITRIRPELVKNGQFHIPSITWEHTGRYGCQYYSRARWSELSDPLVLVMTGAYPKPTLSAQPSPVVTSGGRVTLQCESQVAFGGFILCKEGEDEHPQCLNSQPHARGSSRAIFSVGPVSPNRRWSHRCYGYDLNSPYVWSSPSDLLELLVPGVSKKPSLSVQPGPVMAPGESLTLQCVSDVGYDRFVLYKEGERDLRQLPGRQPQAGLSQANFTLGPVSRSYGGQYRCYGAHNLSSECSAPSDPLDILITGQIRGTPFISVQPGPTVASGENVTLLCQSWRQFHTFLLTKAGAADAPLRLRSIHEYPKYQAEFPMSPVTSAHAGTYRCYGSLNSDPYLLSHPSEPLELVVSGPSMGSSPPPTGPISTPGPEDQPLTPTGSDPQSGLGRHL

B1: (alpha1-alpha 3)×2 dimer of SEQ ID NO:4 (peptide)
chain: GSHSMRYFSAAVSRPGRGEPRFIAMGYVDDTQFVRFDSDSACPRMEPRAPWVEQEGPEYWEEETRNTKAHAQTDRMNLQTLRGYYNQSEADPPKTHVTHHPVFDYEATLRCWALGFYPAEIILTWQRDGEDQTQDVELVETRPAGDGTFQKWAAVVVPSGEEQRYTCHVQHEGLPEPLMLRWKQ
modifications: intrachain disulfide between cysteines 111 and 167; interchain disulfide bridge between Cysteine 42 of the two monomers
notes: Synthetic disulfide-linked homodimer; in the assay covalently coated on Bio-Plex-COOH polystyrene beads; also called (alpha 3-alpha1)×2; (alpha1-alpha 3)x2
  binding result: binds
